Test results taken from paper PMC2734247, “The Chlamydia Type III Secretion System C-ring Engages a Chaperone-Effector Protein Complex” (PLoS Pathogens, 2009).

Experiments:
[1] = target: Cap1-6xHis (aa 1-298) (C. trachomatis serovar D); test: SEC; proteins eluted from Ni2+-NTA (complexes formed by co-expression in E. coli) on a 16/60 Sephacryl S-100 HR column; 10 mM Tris-HCl/50 mM phosphate buffer/150 mM NaCl pH 8.0; sizes by a low molecular weight calibration kit
[2] = target: the molecule itself; test: cross-linking; purified 6xHis-Mcsc treated with 0.25-1 mM DSP for 20 min at 4 C; SDS-PAGE with or without 50 mM DTT; immunoblot with Mcsc antibodies
Ct618-6xHis (aa 1-189) = target: T1, Ct618-6xHis (aa 1-189) (C. trachomatis serovar D, UniProt O84623 1-189); test: SEC; proteins eluted from Ni2+-NTA (complexes formed by co-expression in E. coli) on a 16/60 Sephacryl S-100 HR column; 10 mM Tris-HCl/50 mM phosphate buffer/150 mM NaCl pH 8.0; sizes by a low molecular weight calibration kit; details: both partners purified
T1 construct: Ct618 of C. trachomatis, amino-terminal domain, aa 1-189; printed as Ct618-6xHis; also called 6xHis-tagged Ct618; amino-terminal domain of Ct618; source: E. coli BL21 DE3 (bicistronic pET-24d with Mcsc), in lysate; purified (Ni2+-NTA agarose, gel filtration)
T1 sequence: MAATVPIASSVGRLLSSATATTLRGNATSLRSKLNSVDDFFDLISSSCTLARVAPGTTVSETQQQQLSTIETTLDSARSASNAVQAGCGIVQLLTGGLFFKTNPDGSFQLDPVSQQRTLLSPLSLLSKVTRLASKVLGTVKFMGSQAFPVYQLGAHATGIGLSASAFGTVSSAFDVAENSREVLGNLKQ

Mcsc, untagged, co-expressed from a bicistronic vector (from UniProt O84262 1-163) (natural protein)
stoichiometry N (Mcsc subunits per effector protein) [1]: 2

B1: 6xHis-Mcsc (natural protein)
chain: MTTWTLNHNNLTKFLTHAQLEPSLERESGLIYITVPAGEHELPLFFVIRNEGEVLQLVCYFPYQIQQNQRDTTARLLHLVNRDIDIPGFGMDEEQNIIFYRLVIPCLKGEINEDLLRVYIDTIKLICDSFFHAIGLISTGNMDLDELKKQAKLENNQSDQLEP
notes: Ct260 (Mcsc) of C. trachomatis, amplified from serovar D genomic DNA; printed as 6xHis-Mcsc, vector pET15b; also called hexahistidine-tagged Mcsc (Ct260); 6xHis-tagged Mcsc dimers; source: E. coli BL21 DE3 (pET15b-Mcsc), purified (Ni2+-NTA agarose, gel filtration)
stoichiometry N [2]: 2

B2: Mcsc, untagged, co-expressed from a bicistronic vector (natural protein)
chain: MTTWTLNHNNLTKFLTHAQLEPSLERESGLIYITVPAGEHELPLFFVIRNEGEVLQLVCYFPYQIQQNQRDTTARLLHLVNRDIDIPGFGMDEEQNIIFYRLVIPCLKGEINEDLLRVYIDTIKLICDSFFHAIGLISTGNMDLDELKKQAKLENNQSDQLEP
notes: Ct260 (Mcsc) of C. trachomatis, amplified from serovar D genomic DNA; also called untagged Mcsc; Ct260; source: E. coli BL21 DE3 (bicistronic pET-24d), in lysate; co-purified with the 6xHis-tagged effector (Ni2+-NTA agarose, gel filtration)
stoichiometry N (Ct618-6xHis (aa 1-189)): 2 Mcsc subunits per effector protein
